# Measurements from article doi:10.1101/2019.12.30.891283 (bioRxiv, 2019).
# Target: the molecule itself
# Assay: native MS
protein,measurement,value
enoyl-ACP reductase (FabI) from E. coli (enzyme) MGFLSGKRILVTGVASKLSIAYGIAQAMHREGAELAFTYQNDKLKGRVEEFAAQLGSDIVLQCDVAEDASIDTMFAELGKVWPKFDGFVHSIGFAPGDQLDGDYVNAVTREGFKIAHDISSYSFVAMAKACRSMLNPGSALLTLSYLGAERAIPNYNVMGLAKASLEANVRYMANAMGPEGVRVNAISAGPIRTLAASGIKDFRKMLAHCEAVTPIRRTVTIEDVGNSAAFLCSDLSAGISGEVVHVDGGFSIAAMNELELK,stoichiometry N,4
